Assays:
[1] = system: Panc1 cells; test: Panc1 cell migration and invasion after rhDKK3; type: cell-based, human; settings: Panc1, 10 μg/mL, 24 hours
Procedure: FIGS. 2A-J. DKK3 stimulates HPSC and PDAC activity and increases chemoresistance. (FIG. 2A) HPSC proliferation was measured by MTT after treatment with PBS or rhDKK3 (10 μg/ml). DKK3 was silenced in HPSCs by shDKK3 (FIG. 2B) and cell proliferation was measured by MTT assay (FIG. 2B) and migration was determined at 24 hours (FIG. 2C). Control cells were transfected with scrambled shRNA. (FIG. 2D) Panc1 cells were treated with rhDKK3 (10 μg/ml) or serum-free media control, and cell migration and invasion were measured after 24 hours. (FIGS. 2E-F) Panc1 cells were stably silenced for DKK3 and cell proliferation (FIG. 2E) and colony formation in soft agar (FIG. 2F) were measured. (FIG. 2G) BxPC3 cell migration was measured after treatment with CM from HPSCs or HPSCs silenced for DKK3. Soft agar colony formation (FIG. 2H) in gemcitabine and apoptosis (FIG. 2I) was determined in chemosensitive L3.6p1 cells expressing DKK3 compared with transfection controls. (FIG. 2J) Gemcitabine-induced apoptosis was measured in chemoresistant HS766T cells silenced for DKK3. *p<0.01, **p<0.001, ***p<0.0001, ****p<0.00001.
(§1) Cell-based assays. Cell proliferation was measured by the MTS assay (Promega, Madison, Wis.). […]

[2] = system: NF-κB; test: NF-κB luciferase reporter assay in Panc28; type: cell-based, human; settings: parental Panc28 cells
Procedure: FIGS. 3A-F. NF-κB is activated in PSCs and PDAC cells by DKK3 and is necessary for DKK3-mediated stimulation of cell activity. (FIG. 3A) Phosphorylation of p65 and IκBα induced by DKK3 treatment (10 μg/ml) was determined by Western blotting. Relative protein loading was shown by using anti-β-actin antibody. (FIG. 3B) Time course of p65 activation by WB in HPSC and Panc1 cells. Cells were treated with recombinant DKK3 (10 μg/ml) for 0-24 h and change in band density relative to baseline were quantified. (FIG. 3C) DKK3 stimulates NFκB luciferase reporter in HPSC & PDAC cells, with mutant luc reporter (MT). NFκB activity induced by DKK3 was measured in Panc28 with phosphorylation-defective IκBαM by luciferase reporter (FIG. 3D) and Western blotting (FIG. 3E). For FIGS. 3C&D, in each set of three columns, the left is “PBS,” the middle is “DKK3,” and the right is “TNFα.” (FIG. 3F) Proliferation of Panc28 and Panc28/IκBαM was measured by MTT assay. *p<0.05, **p<0.01, ***p<0.001 and ****p<0.0001 vs. PBS control.
NF-κB activity. NF-κB activity was determined by using a luciferase reporter assay. […] Luciferase signal was detected by using D-luciferin firefly potassium salt (Caliper Life Sciences, Hopkinton, Mass.) and the IVIS® imaging system (Xenogen Corp., Alameda, Calif.). […]

[3] = system: CD3+ T cells; test: T cell division assay (CFSE); type: cell-based, human; settings: stimulated CD3+ T cells, DKK3 5-10 μg/mL
Procedure: FIGS. 6A-F. DKK3 blockade is associated with increased tumor immune infiltrates and improves response to checkpoint inhibitor therapy. (FIG. 6A) T cells were stimulated, treated with DKK3 (5-10 μg/mL) and proliferation was measured by CFSE assay. In a syngeneic orthotopic model with luciferase-labeled KPC cells, tumors were examined for CD3 and CD8 expression by IHC (FIG. 6B) and additional markers of T cell activity were measured by quantitative PCR (FIG. 6C). Mice in this model were treated with either control IgG, DKK3 mAb JM6-6-1, αCTLA4 or the combination JM6-6-1+αCTLA4 and tumor growth was measured by IVIS imaging to 25 and 190 days (FIG. 6D). Survival in this orthotopic implantation model is shown in (FIG. 6E). Using a GEMM (FIG. 6F), KPC/DKK3^+/+ (black line) or KPC/DKK3^−/− (blue line) mice were treated with αCTLA4 or control IgG and the Kaplan Meier survival curve is shown. *p<0.05, **p<0.01, ***p<0.001.
T cell division assay. Peripheral blood mononuclear cells (PBMC) were obtained from buffy coat by density centrifugation using Histopaque 1077 (Sigma) and CD3^+ T-cells were isolated using a pan T-cell isolation kit (Miltenyi Biotec). […] DKK3 or HPSC-CM was added and after 96 hours, cells were stained for CD3, CD4, and CD8 to define lineage and analyzed by flow cytometry. […]

[4] = target: T1, recombinant human DKK3 (human, UniProt Q9UBP4 22-350); test: non-denaturing Western blot of recombinant protein
T1 construct: Bought recombinant protein (R&D); also called rhDKK3; recombinant human DKK-3/His

[5] = target: T2, recombinant mouse DKK3 (mouse, UniProt Q9QUN9 23-349, limits assumed); test: non-denaturing Western blot of recombinant protein
T2 construct: also called murine DKK3

[6] = system: BxPC3 cells; test: BxPC3 Transwell migration in response to rhDKK3; type: cell-based, human; settings: BxPC3, rhDKK3 10 μg/ml, 48 hours
Procedure: (§2) HPSCs and BxPC3 cells were treated with DKK3 mAb clones JM6-6-1 and JM8-12-1 or isotype control mAb or PBS. (FIGS. 5A-B) HPSC apoptosis and migration as measured by FACS and Transwell migration assay at 48 hours. (FIG. 5C) BxPC3 migration in response to rhDKK3 10 μg/ml as measured by Transwell migration assay at 48 hours. (FIG. 5D) BxPC3 resistance to gemcitabine 100 μM as measured by MTS proliferation assay at 6 days. HPSC-CM, pancreatic stellate cell conditioned media, 10 μg/ml. The orthotopic co-injection BxPC3+ HPSC model of PDAC was used to test the efficacy of DKK3 mAb clones JM6-6-1 or JM8-12-1 (5 mg/kg i.p. once every 5 days). (FIG. 5E) Overall tumor progression was measured every 3-4 days by IVIS imaging. (FIG. 5F) Metastatic tumors in the peritoneal cavity after removal of the primary pancreatic tumor are shown by IVIS imaging. (FIG. 5G) Kaplan Meier survival curve showing mice treated with DKK3 mAb clone JM8-12 (right-most line), control mAb (middle line), or PBS (left-most line). (FIG. 5H) KPC mice (P48-Cre; Kras LSL-G12D;Trp53fl/fl) with either wild type DKK3 (solid lines) or deficient in DKK3 (“DKK3-KO,” dashed lines) were treated with DKK3 mAb JM6-6-1 (5 mg/kg i.p. once every 5 days), PBS or control mAb. […]
as §1

[7] = system: BxPC3 cells; test: BxPC3 resistance to gemcitabine, MTS proliferation assay; type: cell-based, human; settings: BxPC3, gemcitabine 100 μM, HPSC-CM 10 μg/ml, 6 days
Procedure: as §2, §1

[8] = system: BxPC3 + HPSC orthotopic tumors; test: Orthotopic co-injection BxPC3 + HPSC nude mouse model of PDAC; type: in vivo; settings: 5 mg/kg i.p. once every 5 days
Procedure: HPSCs and BxPC3 cells were treated with DKK3 mAb clones JM6-6-1 and JM8-12-1 or isotype control mAb or PBS. (FIGS. 5A-B) HPSC apoptosis and migration as measured by FACS and Transwell migration assay at 48 hours. (FIG. 5C) BxPC3 migration in response to rhDKK3 10 μg/ml as measured by Transwell migration assay at 48 hours. (FIG. 5D) BxPC3 resistance to gemcitabine 100 μM as measured by MTS proliferation assay at 6 days. HPSC-CM, pancreatic stellate cell conditioned media, 10 μg/ml. The orthotopic co-injection BxPC3+ HPSC model of PDAC was used to test the efficacy of DKK3 mAb clones JM6-6-1 or JM8-12-1 (5 mg/kg i.p. once every 5 days). (FIG. 5E) Overall tumor progression was measured every 3-4 days by IVIS imaging. (FIG. 5F) Metastatic tumors in the peritoneal cavity after removal of the primary pancreatic tumor are shown by IVIS imaging. (FIG. 5G) Kaplan Meier survival curve showing mice treated with DKK3 mAb clone JM8-12 (right-most line), control mAb (middle line), or PBS (left-most line). (FIG. 5H) KPC mice (P48-Cre; Kras LSL-G12D;Trp53fl/fl) with either wild type DKK3 (solid lines) or deficient in DKK3 (“DKK3-KO,” dashed lines) were treated with DKK3 mAb JM6-6-1 (5 mg/kg i.p. once every 5 days), PBS or control mAb. Kaplan Meier survival curve is shown with hazard ratios (Log-rank test). *p<0.05, **p<0.01, ***p<0.001, ****p<0.0001 vs. control Ab.
An orthotopic nude mouse model of PDAC using BxPC3 cancer cells labeled with firefly luciferase (BxPC3-FL) co-injected with HPSCs has been previously described (Hwang et al., 2008). Mice received intrapancreatic injections of BxPC3-FL (1×10^6 per mouse) with HPSC-shControl or HPSC-shDKK3 in a tumor-to-stroma ratio of 1:0 or 1:3 in 50-μL of HBSS and tumor growth was monitored using IVIS imaging (Hwang et al., 2008). In addition, a syngeneic immunocompetent DKK3 null model was used, provided by Dr. C. Niehrs (Barrantes Idel et al., 2006), that was injected with murine PDAC cells (termed “KPC cells”) isolated from tumors arising in a GEMM of PDAC (Pdx1-Cre; Kras^LSL-G12D;Trp53^R172H/+) (Hingorani et al., 2005; Hingorani et al., 2003) and labeled with luciferase.
The efficacy of DKK3 mAb was tested in vivo using the previously described orthotopic co-implantation nude mouse model of PDAC with human PSCs mixed with luciferase-labeled BxPC3 cancer cells (1:3 tumor:PSC ratio). Mice were treated with either phosphate-buffered saline (PBS), isotype control mAb, or DKK3 mAb (clone JM6-6-1; 5 mg/kg i.p. once every 5 days) and tumor growth was followed with IVIS imaging. […] Tumors in the PBS and control mAb groups grew rapidly from day 22 onward, with an 8-fold increase in the luciferase signal.

T2 sequence (Q9QUN9 23-349 limits assumed): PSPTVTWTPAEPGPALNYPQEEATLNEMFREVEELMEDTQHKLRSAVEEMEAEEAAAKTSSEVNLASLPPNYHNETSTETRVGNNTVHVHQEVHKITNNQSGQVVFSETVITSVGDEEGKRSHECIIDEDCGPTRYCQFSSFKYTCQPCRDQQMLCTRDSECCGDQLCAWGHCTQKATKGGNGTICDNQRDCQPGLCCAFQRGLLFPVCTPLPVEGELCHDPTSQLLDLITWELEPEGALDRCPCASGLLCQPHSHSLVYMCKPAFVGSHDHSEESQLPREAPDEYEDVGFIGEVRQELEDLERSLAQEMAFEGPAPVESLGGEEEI
T1 sequence (Q9UBP4 22-350 limits assumed): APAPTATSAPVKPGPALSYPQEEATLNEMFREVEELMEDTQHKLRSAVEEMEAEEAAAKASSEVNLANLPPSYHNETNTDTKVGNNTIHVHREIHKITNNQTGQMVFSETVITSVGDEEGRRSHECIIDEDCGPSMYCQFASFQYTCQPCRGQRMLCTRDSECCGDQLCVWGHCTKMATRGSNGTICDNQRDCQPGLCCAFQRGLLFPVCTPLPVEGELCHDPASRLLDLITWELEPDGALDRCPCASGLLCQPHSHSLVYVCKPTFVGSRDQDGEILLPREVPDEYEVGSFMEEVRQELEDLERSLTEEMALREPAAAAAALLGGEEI

rhDKK3: recombinant human DKK3 (R&D)
increase in invasion vs PBS controls [1]: > 3 fold
increase in migration vs PBS controls [1]: ~100%
induction of NF-κB promoter activity relative to PBS control [2]: 33%
inhibition of cell proliferation compared to media alone [3]: 4.7-11.5 fold

B1: DKK3 mAb clone JM6-6-1 (antibody, V domains shown)
VH: EVKLVESGGGLVKPGGSLKLSCAASGFTFTIEYMAWIRQTPEKRLEWVASISSGGDDIYYADNVKGRFTISRDNAKNTLYLQMSSLKSEDTAIYYCSRSLSDWGQGTTLTVSS
VL: MTQTPLSLPVSLGDQASISCRSSQSILHSNGHTYLEWYLQKPGQSPKLLIYKVSNRFSGVPDRFSGSGSGTDFTLKISRVEAEDLGVYYCFQGSHVPFTFGSGTKLEIER
notes: Mouse hybridoma mAb from A/J mice immunized with recombinant human DKK-3/His; the negative control is an IgG1 isotype control; also called anti-DKK3 mAb JM6-6-1; DKK3 antibody JM6-6-1
binding result [4]: binds
binding result [5]: binds

B2: JM8-12-1: monoclonal antibody against human DKK3; heavy chain variable SEQ ID NO: 17, light chain variable SEQ ID NO: 18 (tabled as JM8-12-2) (antibody, V domains shown)
VH: MKPSQSLSLTCTVTGYSITSDYAWNWIRQFPGNKLEWMGYISYRGSTRYNPSLKSRISITRDTSKNQLYLQLHSVTTEDTATYYCVHDGYYWVQQTLVTVSAAKTTPPSDY
VL: QDPRVDIVLTQSPASLAVSLFQRATISYRASKSVSTSGYSYMHWNQQKPGQPPRLLIYLVSNLESGVPARFSGSGSGTDFTLNIHPVEEEDAATYYCQHIRELTRSEGGPSWK
effect on DKK3-mediated induction of migration [6]: reverse the DKK3-mediated induction of migration
effect on DKK3-mediated chemoresistance to gemcitabine [7]: abrogated the DKK3-mediated induction of chemoresistance to gemcitabine
hazard ratio compared with PBS control group [8]: 0.26
median survival [8]: 50 days

From patent US20210340232A1, “MONOCLONAL ANTIBODIES AGAINST HUMAN DICKKOPF3 AND USES THEREOF” (Board of Regents, The University of Texas System, priority 2018, published 2021)
